# Measured values from patent US10047131B2, “Peptides and combination of peptides for use in immunotherapy against ovarian cancer and other cancers” (immatics biotechnologies GmbH, priority 2015, dated 2018).
# Target: HLA-A*02:01 (Homo sapiens, UniProt P04439, D140Y/D185E/D98H/E176V/E277Q/G131W/G231S/I119V/I121R/I166T/I218V/L300P/L318F/N151K/N90K/P208A/P217A/Q86G/Q94H/R138H/R169H/T345S)
# Experiment: MHC binding assay (UV-ligand exchange, ELISA of exchange yield)
# Conditions: binding to HLA-A*02:01, UV-ligand exchange
# Procedure, shortened: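 ELISA of β2m retained on streptavidin-captured, 100-fold diluted complexes (HRP anti-β2m, TMB, 450 nm) gives the yield. Complexes come from UV-triggered exchange of a photocleavable placeholder peptide for the candidate, which must bind to stop complex dissociation.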
row,Substance,"Peptide exchange (MHC class I binding score, peptide exchange yield)"
1,529 (LLADELITV; listed as Homo sapiens) [compound 529],“+++” (≥50 = +++)
2,530 (VMYADIGGMDI; listed as Homo sapiens) [compound 530],“+++” (≥50 = +++)
3,531 (YTLPIASSIRL; listed as Homo sapiens) [compound 531],“+++” (≥50 = +++)
4,537 (TLAPGEVLRSV; listed as Homo sapiens) [compound 537],“+++” (≥50 = +++)
5,538 (LLLAHIIAL; listed as Homo sapiens) [compound 538],“++” (≥20% = ++)
6,539 (ALFDAQAQV; listed as Homo sapiens) [compound 539],“+++” (≥50 = +++)
7,541 (SMLEPVPEL; listed as Homo sapiens) [compound 541],“+++” (≥50 = +++)
8,542 (RVWDISTVSSV; listed as Homo sapiens) [compound 542],“+++” (≥50 = +++)
9,543 (GLLPTPITQQASL; listed as Homo sapiens) [compound 543],“+++” (≥50 = +++)
10,544 (LLWDVPAPSL; listed as Homo sapiens) [compound 544],“+++” (≥50 = +++)
11,545 (LLADLLHNV; listed as Homo sapiens) [compound 545],“+++” (≥50 = +++)
12,546 (VMIAGKVAVV; listed as Homo sapiens) [compound 546],“+++” (≥50 = +++)
13,547 (TLDITPHTV; listed as Homo sapiens) [compound 547],“+++” (≥50 = +++)
14,548 (ALWENPESGEL; listed as Homo sapiens) [compound 548],“++” (≥20% = ++)
15,549 (AMLENASDIKL; listed as Homo sapiens) [compound 549],“+++” (≥50 = +++)
16,550 (FLYDEIEAEVNL; listed as Homo sapiens) [compound 550],“+++” (≥50 = +++)
17,551 (KLYESLLPFA; listed as Homo sapiens) [compound 551],“+++” (≥50 = +++)
18,552 (GLLDLPFRVGV; listed as Homo sapiens) [compound 552],“++++” (≥75% = ++++)
19,553 (SLLNQDLHWSL; listed as Homo sapiens) [compound 553],“++++” (≥75% = ++++)
20,554 (LLMPSSEDLLL; listed as Homo sapiens) [compound 554],“+++” (≥50 = +++)
21,555 (YVLEGLKSV; listed as Homo sapiens) [compound 555],“+++” (≥50 = +++)
22,556 (FLTDLEDLTL; listed as Homo sapiens) [compound 556],“+++” (≥50 = +++)

row,Substance,"Peptide exchange (MHC class I binding score, peptide exchange yield)"
1,557 (KLYDDMIRL; listed as Homo sapiens) [compound 557],“+++” (≥50 = +++)
2,558 (GLLENIPRV; listed as Homo sapiens) [compound 558],“+++” (≥50 = +++)
3,559 (VTVPPGPSL; listed as Homo sapiens) [compound 559],“++” (≥20% = ++)
4,560 (ALWDIETGQQTTT; listed as Homo sapiens) [compound 560],“+++” (≥50 = +++)
5,561 (YLQLTQSEL; listed as Homo sapiens) [compound 561],“+++” (≥50 = +++)
6,562 (YLEELPEKLKL; listed as Homo sapiens) [compound 562],“+++” (≥50 = +++)
7,563 (WLLPYNGVTV; listed as Homo sapiens) [compound 563],“+++” (≥50 = +++)
8,564 (TVTNAVVTV; listed as Homo sapiens) [compound 564],“+++” (≥50 = +++)
9,565 (ALQETPTSV; listed as Homo sapiens) [compound 565],“++” (≥20% = ++)
10,566 (VIADGGIQNV; listed as Homo sapiens) [compound 566],“++” (≥20% = ++)
11,567 (SLLPLDDIVRV; listed as Homo sapiens) [compound 567],“+++” (≥50 = +++)
12,568 (TLYDIAHTPGV; listed as Homo sapiens) [compound 568],“++++” (≥75% = ++++)
13,569 (KLVDRTWTL; listed as Homo sapiens) [compound 569],“+++” (≥50 = +++)
14,570 (ALANQIPTV; listed as Homo sapiens) [compound 570],“++” (≥20% = ++)
15,571 (LLLTTIPQI; listed as Homo sapiens) [compound 571],“+++” (≥50 = +++)
16,572 (ALADLIEKELSV; listed as Homo sapiens) [compound 572],“+++” (≥50 = +++)
17,573 (ILVANAIVGV; listed as Homo sapiens) [compound 573],“+++” (≥50 = +++)
18,574 (YLLQEPPRTV; listed as Homo sapiens) [compound 574],“++” (≥20% = ++)
19,575 (YLISQVEGHQV; listed as Homo sapiens) [compound 575],“+++” (≥50 = +++)
20,576 (ILLNNSGQIKL; listed as Homo sapiens) [compound 576],“++++” (≥75% = ++++)
21,577 (VMFEDGVLMRL; listed as Homo sapiens) [compound 577],“+++” (≥50 = +++)
22,578 (FLDPGGPMMKL; listed as Homo sapiens) [compound 578],“+++” (≥50 = +++)

row,Substance,"Peptide exchange (MHC class I binding score, peptide exchange yield)"
1,579 (NLMEMVAQL; listed as Homo sapiens) [compound 579],“++” (≥20% = ++)
2,580 (LLMENAERV; listed as Homo sapiens) [compound 580],“++” (≥20% = ++)
3,582 (TLCDVILMV; listed as Homo sapiens) [compound 582],“+++” (≥50 = +++)
4,583 (ILANDGVLLAA; listed as Homo sapiens) [compound 583],“+++” (≥50 = +++)
5,584 (ALAEVAAMENV; listed as Homo sapiens) [compound 584],“+++” (≥50 = +++)
6,585 (ALWDLAADKQTL; listed as Homo sapiens) [compound 585],“++++” (≥75% = ++++)
7,586 (KLKPGDLVGV; listed as Homo sapiens) [compound 586],“+++” (≥50 = +++)
8,587 (VMNDRLYAI; listed as Homo sapiens) [compound 587],“+++” (≥50 = +++)
9,588 (SLLPLSHLV; listed as Homo sapiens) [compound 588],“+++” (≥50 = +++)
10,589 (KLYPQLPAEI; listed as Homo sapiens) [compound 589],“+++” (≥50 = +++)
11,590 (SLIEKLWQT; listed as Homo sapiens) [compound 590],“++” (≥20% = ++)
12,591 (SMAELDIKL; listed as Homo sapiens) [compound 591],“+++” (≥50 = +++)
13,592 (RLLSAAENFL; listed as Homo sapiens) [compound 592],“+++” (≥50 = +++)
14,593 (GLPRFGIEMV; listed as Homo sapiens) [compound 593],“+++” (≥50 = +++)
15,594 (IMLKGDNITL; listed as Homo sapiens) [compound 594],“+++” (≥50 = +++)
16,595 (VLLSIYPRV; listed as Homo sapiens) [compound 595],“+++” (≥50 = +++)
17,596 (ALLDQTKTLAESAL; listed as Homo sapiens) [compound 596],“+++” (≥50 = +++)
18,597 (KLLEGQVIQL; listed as Homo sapiens) [compound 597],“+++” (≥50 = +++)
19,598 (FLFPHSVLV; listed as Homo sapiens) [compound 598],“+++” (≥50 = +++)
20,599 (YLLNDASLISV; listed as Homo sapiens) [compound 599],“+++” (≥50 = +++)
21,600 (ALAAPDIVPAL; listed as Homo sapiens) [compound 600],“+++” (≥50 = +++)
22,601 (SAFPFPVTV; listed as Homo sapiens) [compound 601],“+++” (≥50 = +++)
